In patent US20240189230A1, “PALM FOR THE TREATMENT OF CHEMOTHERAPY-INDUCED PERIPHERAL NEUROPATHY INCIDENTAL TO THE TREATMENT OF CANCER” (Peptinovo Biopharma Inc., priority 2019, published 2024):
Non-standard residues stand in square brackets, D forms with d. No end group written: not given here. Aib = CC(C)(N)C(=O)O

Experiments:
SR-BI = assay: DiI uptake from DiI-labeled PALM or HDL by BHK(SR-BI) cells, SR-BI induced or un-induced; format: cell-based, human; conditions: for Un-induced DiI Uptake: un-induced BHK(SR-BI) cells
Protocol: A 40 μl aliquot of 10 mM peptide was combined with 56 μl of 20 mM POPC. 24 μl 20 mM SM(egg) and 16 μl 2.5 mM DiI in a small glass vial. The peptide and lipid solutions were prepared in 80% TBA/20% water. The DiI stock was prepared in 92% TBA/8% water. The combined solution was lyophilized and the resultant cake was rehydrated by addition of 0.2 ml of Dulbecco's phosphate buffered saline. The solution was briefly swirled, water bath sonicated (for approx. 15 sec.) and placed in a 50° C. heating block for 20 minutes.
SR-BI interaction studies are done with BHK(SR-BI) cells stably transfected with an inducible human SR-BI gene by means of the GeneSwitch™ System (Invitrogen) (Vickers et al. (2011) Nat. Cell Biol. 13:423-433) . The cells were plated (96-well plate) (8000 cells/well) in growth medium (Dulbecco's modified Eagle medium containing 10% fetal bovine serum) containing 200 μg/ml each of zeocin and hygromycin. After 24 hours incubation, the growth medium was removed and replaced with 0.2% bovine serum albumin in Dulbecco's modified Eagle medium. The medium of cells to be induced for SR-BI expression also contained 10 nM mifepristone, added from a DMSO stock solution. DMSO alone was added to the medium of uninduced cells. The induction medium was removed after 24 hours and replaced with medium containing DiI-labeled PALM (32 μg peptide/ml) or DiI-labeled HDL (19 μg protein/mL) (Kalen Biomedical, Montgomery Village, MD). The test media were prepared by diluting an aliquot of DiI-labeled PALM (Example 10) or the DiI-labeled HDL in 0.2% bovine serum albumin in Dulbecco's modified Eagle medium. The solutions were passed through 0.2 μm pore size, polyethersulfone, sterilization filters before use. The cells were incubated for 4 hours. Next, the cells were washed 3 times with 0.1% albumin in Dulbecco's phosphate buffered saline (with calcium and magnesium). The last wash was replaced with 200 μl/well of t-butanol/water (95%/5%). The covered plate was left to stand at room temp (20-21° C.) for 30 min with occasional shaking. The fluorescence in each well was detected at 520 nm excitation and 580 nm emission with a 550 nm cutoff filter on a […] Gemini fluorescence plate reader (FIG. 9).

[1] = target: human scavenger receptor class B, type 1 (SR-BI) (human) (UniProt Q8WTV0); assay: cell-based or functional assay
[2] = Stability of peptide/phospholipid complexes by visual inspection; format: physicochemical; conditions: SM, PC/SM 70/30, SEQ ID No. 25: peptide to phospholipids 1/4
Protocol: Separate stock solutions of peptide and phospholipids were prepared in a solvent mixture composed of 80% tert-butyl alcohol (TBA) and 20% water to obtain separate solutions of 10 mM peptide, 20 mM 1,2-dioleoyl-sn-glycero-3-phosphocholine (DOPC) or 20 mM 1-palmitoyl-2-oleoyl-phosphatidylcholine (POPC) and 20 mM egg SM. […] The solutions were combined in a 1.5 ml glass vial, frozen (−70° C.), and lyophilized at −5 to −10° C. overnight. The resultant lyophilized cakes were rehydrated by addition of Dulbecco's phosphate buffered saline followed by gentle swirling of the contents. Formation of PALM was completed by incubating the PALM solution at 50° C. for 10 minutes. […] The qualities of the PALM preparations were evident in their appearance. A visually clear preparation indicated any nanoparticles that had formed were less than approximately 40 nm diameter, based on the Tyndall effect.

[3] = target: T1, human scavenger receptor class B, type 1 (SR-BI) (human, UniProt Q8WTV0 1-552); assay: cell-based or functional assay
T1 sequence (looked up): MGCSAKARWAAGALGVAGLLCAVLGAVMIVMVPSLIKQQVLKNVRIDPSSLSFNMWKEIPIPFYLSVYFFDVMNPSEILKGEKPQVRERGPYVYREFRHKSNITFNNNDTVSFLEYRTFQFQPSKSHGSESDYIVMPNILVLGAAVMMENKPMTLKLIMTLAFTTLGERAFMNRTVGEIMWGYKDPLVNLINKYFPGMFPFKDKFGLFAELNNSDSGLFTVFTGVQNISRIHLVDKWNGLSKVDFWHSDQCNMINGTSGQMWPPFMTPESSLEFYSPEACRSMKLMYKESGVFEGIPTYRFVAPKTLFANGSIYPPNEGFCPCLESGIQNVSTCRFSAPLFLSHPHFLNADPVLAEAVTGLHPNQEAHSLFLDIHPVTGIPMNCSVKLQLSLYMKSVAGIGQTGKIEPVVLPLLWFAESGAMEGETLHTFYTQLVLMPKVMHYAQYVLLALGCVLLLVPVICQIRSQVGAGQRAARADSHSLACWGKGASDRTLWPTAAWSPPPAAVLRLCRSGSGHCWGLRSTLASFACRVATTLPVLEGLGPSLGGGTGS

[4] = 4 hours, PALM prepared with the peptide 32 μg/ml, HDL 19 μg/ml, average (n = 4) ± SEM
[5] = complex of the peptide with POPC, C16PTX/PL 0
[6] = complex of the peptide with POPC, C16PTX/PL 0.1
[7] = complex of the peptide with DOPC, C16PTX/PL 0
[8] = complex of the peptide with DOPC, C16PTX/PL 0.1

DVFQ{AIB}LKELLNQLLEKFKQV (DVFQ[Aib]LKELLNQLLEKFKQV) [SEQ ID NO: 5]
Un-induced DiI Uptake (SR-BI; [4]): 0.54 ± 0.03 pmol/µg/mL

DVFQ{AIB}LKELFNQLLEKWKQV (DVFQ[Aib]LKELFNQLLEKWKQV) [SEQ ID NO: 3]
Un-induced DiI Uptake (SR-BI; [4]): 0.16 ± 0.01 pmol/µg/mL

DiI-labeled human HDL (Kalen Biomedical) (from UniProt P02647 25-267)
Increase Over Un-induced (DiI uptake, BHK(SR-BI) cells) [1]: 561% | Induced DiI Uptake (pmol/ug/ml), BHK(SR-BI) cells induced for human SR-BI, 4 h [1]: 0.86 pmol/µg/mL

DVFQKLVELFNQLLEKWKQV [SEQ ID NO: 26]
Un-induced DiI Uptake (SR-BI; [4]): 0.49 ± 0.04 pmol/µg/mL | Stability of Peptide/Phospholipid Complexes by Visual Inspection [2, 5]: Clear (A visually clear preparation indicated any nanoparticles that had formed were less than approximately 40 nm diameter) | Stability of Peptide/Phospholipid Complexes by Visual Inspection [2, 6]: Turbid

DV{AIB}QKFLELFNQLLEKWKQV (DV[Aib]QKFLELFNQLLEKWKQV) [SEQ ID NO: 32]
Un-induced DiI Uptake (SR-BI; [4]): 0.28 ± 0.02 pmol/µg/mL | Stability of Peptide/Phospholipid Complexes by Visual Inspection [2, 7]: Turbid | Stability of Peptide/Phospholipid Complexes by Visual Inspection [2, 8]: Turbid | Stability of Peptide/Phospholipid Complexes by Visual Inspection [2, 5]: Clear (A visually clear preparation indicated any nanoparticles that had formed were less than approximately 40 nm diameter) | Stability of Peptide/Phospholipid Complexes by Visual Inspection [2, 6]: Turbid

HDL: high density lipoprotein, human, labeled with DiI (Kalen Biomedical) [reference compound]
Induced DiI Uptake (SR-BI; SR-BI induced (10 nM mifepristone) BHK(SR-BI) cells, 4 hours, PALM prepared with the peptide 32 μg/ml, HDL 19 μg/ml, average (n = 4) ± SEM): 0.86 ± 0.03 pmol/µg/mL | Increase Over Un-induced (SR-BI; induced vs un-induced DiI uptake): 561% | Un-induced DiI Uptake (SR-BI; [4]): 0.13 ± 0.02 pmol/µg/mL

DVFQKL{AIB}ELFNQL{AIB}EKWKQV (DVFQKL[Aib]ELFNQL[Aib]EKWKQV) [SEQ ID NO: 35]
Un-induced DiI Uptake (SR-BI; [4]): 0.35 ± 0.01 pmol/µg/mL

DVFQKL{AIB}ELFNQLLEKWKQV (DVFQKL[Aib]ELFNQLLEKWKQV) [SEQ ID NO: 25]
Un-induced DiI Uptake (SR-BI; [4]): 0.24 ± 0.01 pmol/µg/mL | Stability of Peptide/Phospholipid Complexes by Visual Inspection [2, 7]: Clear (A visually clear preparation indicated any nanoparticles that had formed were less than approximately 40 nm diameter) | Stability of Peptide/Phospholipid Complexes by Visual Inspection [2, 8]: Clear (A visually clear preparation indicated any nanoparticles that had formed were less than approximately 40 nm diameter) | Stability of Peptide/Phospholipid Complexes by Visual Inspection [2, 5]: Clear (A visually clear preparation indicated any nanoparticles that had formed were less than approximately 40 nm diameter) | Stability of Peptide/Phospholipid Complexes by Visual Inspection [2, 6]: Clear (A visually clear preparation indicated any nanoparticles that had formed were less than approximately 40 nm diameter)

DV{AIB}QKLFELFNQLLEKWKQV (DV[Aib]QKLFELFNQLLEKWKQV) [SEQ ID NO: 27]
Un-induced DiI Uptake (SR-BI; [4]): 0.34 ± 0.01 pmol/µg/mL | Stability of Peptide/Phospholipid Complexes by Visual Inspection [2, 7]: Turbid | Stability of Peptide/Phospholipid Complexes by Visual Inspection [2, 5]: Clear (A visually clear preparation indicated any nanoparticles that had formed were less than approximately 40 nm diameter) | Stability of Peptide/Phospholipid Complexes by Visual Inspection [2, 6]: Turbid

B1: DiI-labeled PALM prepared with the peptide of SEQ ID NO: 25 (peptide)
peptide: DVFQKL[Aib]ELFNQLLEKWKQV
modifications: also: formulated as DiI-labeled peptide amphiphile lipid micelle with POPC and egg sphingomyelin
Increase Over Un-induced (DiI uptake, BHK(SR-BI) cells) [3]: 245% | Induced DiI Uptake (pmol/ug/ml), BHK(SR-BI) cells induced for human SR-BI, 4 h [3]: 0.83 pmol/µg/mL

B2: DiI-labeled PALM prepared with the peptide of SEQ ID NO: 5 (peptide)
peptide: DVFQ[Aib]LKELLNQLLEKFKQV
modifications: also: formulated as DiI-labeled peptide amphiphile lipid micelle with POPC and egg sphingomyelin
Increase Over Un-induced (DiI uptake, BHK(SR-BI) cells) [3]: 73% | Induced DiI Uptake (pmol/ug/ml), BHK(SR-BI) cells induced for human SR-BI, 4 h [3]: 0.93 pmol/µg/mL

B3: DiI-labeled PALM prepared with the peptide of SEQ ID NO: 35 (peptide)
peptide: DVFQKL[Aib]ELFNQL[Aib]EKWKQV
modifications: also: formulated as DiI-labeled peptide amphiphile lipid micelle with POPC and egg sphingomyelin
Increase Over Un-induced (DiI uptake, BHK(SR-BI) cells) [3]: 264% | Induced DiI Uptake (pmol/ug/ml), BHK(SR-BI) cells induced for human SR-BI, 4 h [3]: 1.26 pmol/µg/mL

DVFQKLVELFNQLLEKWKQV (also: peptide amphiphile lipid micelle with POPC, egg sphingomyelin, DiI) [DiI-labeled PALM prepared with the peptide of SEQ ID NO: 26]
Increase Over Un-induced (DiI uptake, BHK(SR-BI) cells) [3]: 65% | Induced DiI Uptake (pmol/ug/ml), BHK(SR-BI) cells induced for human SR-BI, 4 h [3]: 0.81 pmol/µg/mL

B4: DiI-labeled PALM prepared with the peptide of SEQ ID NO: 27 (peptide)
peptide: DV[Aib]QKLFELFNQLLEKWKQV
modifications: also: formulated as DiI-labeled peptide amphiphile lipid micelle with POPC and egg sphingomyelin
Increase Over Un-induced (DiI uptake, BHK(SR-BI) cells) [3]: 90% | Induced DiI Uptake (pmol/ug/ml), BHK(SR-BI) cells induced for human SR-BI, 4 h [3]: 0.66 pmol/µg/mL

DVFQ[Aib]LKELFNQLLEKWKQV (also: formulated in a micelle with POPC, egg sphingomyelin and DiI) [DiI-labeled PALM prepared with the peptide of SEQ ID NO: 3]
Increase Over Un-induced (DiI uptake, BHK(SR-BI) cells) [3]: 88% | Induced DiI Uptake (pmol/ug/ml), BHK(SR-BI) cells induced for human SR-BI, 4 h [3]: 0.29 pmol/µg/mL

B5: DiI-labeled PALM prepared with the peptide of SEQ ID NO: 32 (peptide)
peptide: DV[Aib]QKFLELFNQLLEKWKQV
modifications: also: formulated as DiI-labeled peptide amphiphile lipid micelle with POPC and egg sphingomyelin
Increase Over Un-induced (DiI uptake, BHK(SR-BI) cells) [3]: 221% | Induced DiI Uptake (pmol/ug/ml), BHK(SR-BI) cells induced for human SR-BI, 4 h [3]: 0.9 pmol/µg/mL
